Results as given in IntAct's records for PubMed 7486703.

B1: Proto-oncogene tyrosine-protein kinase LCK (Mus musculus), P06240 (parent)
chain: MGCVCSSNPEDDWMENIDVCENCHYPIVPLDSKISLPIRNGSEVRDPLVTYEGSLPPASPLQDNLVIALHSYEPSHDGDLGFEKGEQLRILEQSGEWWKAQSLTTGQEGFIPFNFVAKANSLEPEPWFFKNLSRKDAERQLLAPGNTHGSFLIRESESTAGSFSLSVRDFDQNQGEVVKHYKIRNLDNGGFYISPRITFPGLHDLVRHYTNASDGLCTKLSRPCQTQKPQKPWWEDEWEVPRETLKLVERLGAGQFGEVWMGYYNGHTKVAVKSLKQGSMSPDAFLAEANLMKQLQHPRLVRLYAVVTQEPIYIITEYMENGSLVDFLKTPSGIKLNVNKLLDMAAQIAEGMAFIEEQNYIHRDLRAANILVSDTLSCKIADFGLARLIEDNEYTAREGAKFPIKWTAPEAINYGTFTIKSDVWSFGILLTEIVTHGRIPYPGMTNPEVIQNLERGYRMVRPDNCPEELYHLMMLCWKERPEDRPTFDYLRSVLDDFFTATEGQYQPQP

Variants of: B1
Conditions: with cd4_mouse Cd4, P06332
cd4_mouse Cd4, P06332, sequence (P06332 whole entry): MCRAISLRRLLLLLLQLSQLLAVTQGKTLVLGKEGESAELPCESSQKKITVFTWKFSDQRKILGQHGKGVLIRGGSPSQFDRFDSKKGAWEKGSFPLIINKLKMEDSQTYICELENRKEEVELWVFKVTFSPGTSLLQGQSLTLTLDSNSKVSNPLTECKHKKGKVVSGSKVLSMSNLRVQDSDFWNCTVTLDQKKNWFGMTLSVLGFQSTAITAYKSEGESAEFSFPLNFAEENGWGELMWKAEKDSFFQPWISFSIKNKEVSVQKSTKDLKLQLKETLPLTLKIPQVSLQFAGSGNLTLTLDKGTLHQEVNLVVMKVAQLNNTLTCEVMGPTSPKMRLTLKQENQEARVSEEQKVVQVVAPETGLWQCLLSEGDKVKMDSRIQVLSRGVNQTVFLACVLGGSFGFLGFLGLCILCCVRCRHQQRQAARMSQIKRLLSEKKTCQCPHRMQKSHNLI

Row | Variant | effect of a mutation on the interaction
1 | C20A | decreasing interaction
